# US20200262930A1 (YALE UNIVERSITY, published 2020)
# Key:
# [1] = biological target: T1, primate (Cynomolgus monkey) CHI3L1/YKL-40 (Cynomolgus monkey, UniProt A0A7N9DGM0 12-373); assay: titration ELISA
# T1 construct: also called primate CHI3L1/YKL-40
# [2] = biological target: T2, murine BRP-39 (murine homologue of CHI3L1/YKL-40) (murine, UniProt Q61362 30-389, limits assumed); assay: titration ELISA
# T2 construct: also called murine YKL-40
# human CHI3L1/YKL-40 = biological target: T3, human CHI3L1/YKL-40 (human, UniProt P36222 22-383); assay: titration ELISA against human YKL-40
# T3 construct: also called human YKL-40
# T3 sequence (P36222 22-383 limits assumed): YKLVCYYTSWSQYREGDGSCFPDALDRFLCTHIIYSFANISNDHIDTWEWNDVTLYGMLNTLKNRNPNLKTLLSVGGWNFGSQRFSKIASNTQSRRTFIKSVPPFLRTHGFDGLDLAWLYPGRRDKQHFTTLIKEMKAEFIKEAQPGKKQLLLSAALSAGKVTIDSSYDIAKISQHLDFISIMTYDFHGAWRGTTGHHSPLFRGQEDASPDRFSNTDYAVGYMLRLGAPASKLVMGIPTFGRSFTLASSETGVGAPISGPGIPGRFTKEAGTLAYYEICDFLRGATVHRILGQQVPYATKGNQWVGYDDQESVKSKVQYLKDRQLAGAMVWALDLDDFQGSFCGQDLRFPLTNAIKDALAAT
# [3] = biological target: T2, murine BRP-39 (murine homologue of …); assay: titration ELISA against murine BRP-39
# T2 sequence (Q61362 30-389 limits assumed): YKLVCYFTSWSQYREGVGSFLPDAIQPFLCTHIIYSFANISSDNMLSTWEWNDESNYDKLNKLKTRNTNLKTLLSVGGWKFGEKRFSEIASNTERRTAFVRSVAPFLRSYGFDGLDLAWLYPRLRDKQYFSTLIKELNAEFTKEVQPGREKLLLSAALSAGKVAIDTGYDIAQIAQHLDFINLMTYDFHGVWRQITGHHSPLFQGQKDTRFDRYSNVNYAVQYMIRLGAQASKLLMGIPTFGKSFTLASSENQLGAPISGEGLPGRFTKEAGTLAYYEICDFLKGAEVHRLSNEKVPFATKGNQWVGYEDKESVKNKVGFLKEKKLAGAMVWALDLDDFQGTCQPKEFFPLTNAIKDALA
fold difference in affinity among species (human highest) [1],fold difference in affinity among species (human highest) [2],binding result (human CHI3L1/YKL-40),binding result [3],Binder
≤ 2 fold,≤ 2 fold,binds,–,"H4-L1 (humanized anti-YKL-40 antibody) (antibody, V domains shown, Humanized, human IgG (detected with goat anti-human IgG-HRP)) VH: QIQLVQSGSELKKPGASVKISCKASGYTFTNYGMNWVRQAPGQGLKWMGWINTYTGEPTYADDFKGRFVFSLDTSVSTAYLQISSLKAEDTSVYFCARLGYGKFYVMDYWGQGTSVTVSS VL: DVVMTQSPLSLPVTLGQPASISCRSSQSLVHSNGNTYLNWYQQRPGQSPRLLIYKVSNRFSGVPDRFSGSGSGTDFTLKISRVEAEDVGVYFCSQSTHVTWTFGGGTKLEIK"
–,–,binds,binds,"H2-L1 (humanized anti-YKL-40 antibody) (antibody, V domains shown, Humanized variant) VH: QIQLVQSGSELKKPGASVKISCKASGYTFTNYGMNWVRQAPGQGLEWMGWINTYTGEPTYAQGFTGRFVFSLDTSVSTAYLQISSLKAEDTSVYFCARLGYGKFYVMDYWGQGTSVTVSS VL: DVVMTQSPLSLPVTLGQPASISCRSSQSLVHSNGNTYLNWYQQRPGQSPRLLIYKVSNRFSGVPDRFSGSGSGTDFTLKISRVEAEDVGVYFCSQSTHVTWTFGGGTKLEIK"
–,–,binds,binds,"H12-L8 (humanized anti-YKL-40 antibody) (antibody, V domains shown, Humanized variant) VH: QIQLVQSGPEVKQPGASVKISCKASGYSFTTYGMNWVKQAPGQGLEWMGWINTYTGEPTYADDFKGRFVFSLDTSASTAYLQISSLKAEDMSTYFCARLGYGKFYVMDYWGQGTSVTVSS VL: DVVMTQSPLSLPVTLGQPASISCRSSQSLVHSNGNTYLHWYQQRPGQSPRLLIYKVSNRFSGVPDRFSGSGSGTDFTLKISRVEAEDVGVYYCSQSTHVTWTFGGGTKLEIK"

# The next lines start with the binder.
Binder,fold difference in affinity among species (human highest) [1],fold difference in affinity among species (human highest) [2],binding result (human CHI3L1/YKL-40),binding result [3]
"H1-L1 (humanized anti-YKL-40 antibody) (antibody, V domains shown, Humanized, kappa light chain, human IgG (detected with goat anti-human IgG-HRP; the PK assay uses an anti-IgG1 capture antibody); also called anti-YKL-40 H1-L1) VH: QIQLVQSGSELKKPGASVKISCKASGYTFTNYGMNWVRQAPGQGLEWMGWINTYTGEPTYADDFKGRFVFSLDTSVSTAYLQISSLKAEDTSVYFCARLGYGKFYVMDYWGQGTSVTVSS VL: DVVMTQSPLSLPVTLGQPASISCRSSQSLVHSNGNTYLNWYQQRPGQSPRLLIYKVSNRFSGVPDRFSGSGSGTDFTLKISRVEAEDVGVYFCSQSTHVTWTFGGGTKLEIK",≤ 2 fold,≤ 2 fold,binds,–
"H11-L5 (humanized anti-YKL-40 antibody) (antibody, V domains shown, Humanized variant) VH: QIQLVQSGPEVKQPGASVKISCKASGYTFTNYGMNWVKQAPGQGLKWMGWINTYTGEPTYAQGFTGRFVFSLDTSASTAYLQISSLKAEDMSTYFCARLGYGKFYVMDYWGQGTSVTVSS VL: DIVMTQTPLSLSVTPGQPASISCKSSQSLVHSNGNTYLHWYLQKPGQSPQLLIYKVSNRFSGVPDRFSGSGSGTDFTLKISRVEAEDVGVYYCSQSTHVTWTFGGGTKLEIK",–,–,binds,binds
"H11-L1 (humanized anti-YKL-40 antibody) (antibody, V domains shown, Humanized, human IgG) VH: QIQLVQSGPEVKQPGASVKISCKASGYTFTNYGMNWVKQAPGQGLKWMGWINTYTGEPTYAQGFTGRFVFSLDTSASTAYLQISSLKAEDMSTYFCARLGYGKFYVMDYWGQGTSVTVSS VL: DVVMTQSPLSLPVTLGQPASISCRSSQSLVHSNGNTYLNWYQQRPGQSPRLLIYKVSNRFSGVPDRFSGSGSGTDFTLKISRVEAEDVGVYFCSQSTHVTWTFGGGTKLEIK",≤ 2 fold,≤ 2 fold,binds,–
